The values below come from paper PMC11119474.

The assay concerns the target HFE-WT-flagM2 (homeostatic iron regulator protein) with β2M-flagM2 (UniProt Q30201).
Chain of UniProt Q30201 (Q30201 23-348, chain 1 of 2): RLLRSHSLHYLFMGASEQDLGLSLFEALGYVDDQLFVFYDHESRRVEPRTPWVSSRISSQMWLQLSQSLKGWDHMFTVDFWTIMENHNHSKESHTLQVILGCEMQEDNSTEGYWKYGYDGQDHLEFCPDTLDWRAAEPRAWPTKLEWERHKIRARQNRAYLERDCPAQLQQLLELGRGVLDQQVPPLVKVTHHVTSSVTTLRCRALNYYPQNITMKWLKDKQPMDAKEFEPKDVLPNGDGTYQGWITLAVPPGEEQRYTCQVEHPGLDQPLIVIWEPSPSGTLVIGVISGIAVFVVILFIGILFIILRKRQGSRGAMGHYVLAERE
Chain of UniProt Q30201 (chain, as listed by the source, chain 2 of 2): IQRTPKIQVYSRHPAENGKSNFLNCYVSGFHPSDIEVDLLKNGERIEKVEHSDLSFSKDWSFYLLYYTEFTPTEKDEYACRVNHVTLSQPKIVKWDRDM

In turn, “PCSK9-WT-V5 (proprotein convertase subtilisin/kexin type 9, wild type) (from UniProt Q8NBP7 31-152; Q8NBP7 153-692) (natural protein)” gave an HFE level by Western blot in HepG2 PCSK9 KO cells expressing HFE/β2M after 18 h with conditioned medium containing WT PCSK9 (Figure 2A) of 60 % reduction.
